# According to PMC9828337 (Angewandte Chemie (International Ed. in English), 2022):
# B1: VenL kinase domain (residues 213–513) (domain or fragment)
# chain: DGSREARGAGAPVLLGGRFAVREAIRHTNKGGVYRGSDVRTGALVVIKEARPHVEADASGHDVRDWLRTEARTLERLRGTGLAPEPLALFEHGGHLFLAQQEVPGVALRTWVAEHFRDAGAERYRVDARAQVGRLVELVAAAHAHGCVLRDFTPGNVMVRPDGELRLIDLELAVLEGDAARPTRVGTPGFSAPERLTGAPVSPTGDYYSLGATACFVLAGKVPNLLPEEPATRAPEQRLAAWLSACAGPLRLPDGLAEMVLGLMKDAPAERWDPARAREALRRADRDDPVTGKPEDSKGSK
# Experiments:
# [1] = molecular target: T1, VenL lyase domain (residues 1–212); experiment: MST
# T1 chain: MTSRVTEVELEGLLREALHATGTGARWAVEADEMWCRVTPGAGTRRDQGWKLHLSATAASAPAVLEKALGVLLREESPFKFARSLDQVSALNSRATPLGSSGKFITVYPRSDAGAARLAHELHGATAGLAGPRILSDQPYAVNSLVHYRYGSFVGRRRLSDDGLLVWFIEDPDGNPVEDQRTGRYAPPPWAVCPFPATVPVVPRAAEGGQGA
# [2] = molecular target: CurKC lyase domain (residues 1–217) (Thermomonospora curvata DSM43183, fluorophore label in the MST assays (position not given)); experiment: MST
binder,measurement,setting,value
B1,Kd,[1],32.3 ± 2.9 µM
same,Kd,[2],24.3 ± 3.5 µM
